Square brackets hold non-standard residues; d marks the D form. Primed or numbered codes have the meaning given here. Side chains are listed from the residue outwards. Ends that are not written are not given here. * marks the point of attachment. Biotin = O=C1N[C@H]2[C@H](CS[C@H]2CCCCC(=O)*)N1; PEG2(3) = PEG2 spacer carrying biotin on Lys
B1: rRAAGKLTCLASACWLFATGIA (peptide)
peptide: [dR]RAAGKLTCLASACWLFATGIA
modifications: not fully specified (C-terminus); printed as rRAAGKLTCLASACWLFATGIA; cysteine pairing not given here
B2: rRAAGKLTCLASYCWLAATGIA (peptide)
peptide: [dR]RAAGKLTCLASYCWLAATGIA
modifications: not fully specified (C-terminus); printed as rRAAGKLTCLASYCWLAATGIA; cysteine pairing not given here
B3: rRAAGKATCLASACW LAATGIA (peptide)
peptide: [dR]RAAGKATCLASACWLAATGIA
modifications: not fully specified (C-terminus); printed as rRAAGKATCLASACW LAATGIA; cysteine pairing not given here
B4: rRASGKLTCLASYCWLFWTGIA (peptide)
peptide: [dR]RASGKLTCLASYCWLFWTGIA
modifications: not fully specified (C-terminus); printed as rRASGKLTCLASYCWLFWTGIA; cysteine pairing not given here
B5: rRAPGKLTCLASYCWLFSTGIA (peptide)
peptide: [dR]RAPGKLTCLASYCWLFSTGIA
modifications: not fully specified (C-terminus); printed as rRAPGKLTCLASYCWLFSTGIA; cysteine pairing not given here
B6: rRAPGKSTCLASYCWLFWTGIA (peptide)
peptide: [dR]RAPGKSTCLASYCWLFWTGIA
modifications: not fully specified (C-terminus); printed as rRAPGKSTCLASYCWLFWTGIA; cysteine pairing not given here
B7: rRAPGKLTCLASYCWLSWTGIA (peptide)
peptide: [dR]RAPGKLTCLASYCWLSWTGIA
modifications: not fully specified; printed as rRAPGKLTCLASYCWLSWTGIA; cysteine pairing not given here

Target: human Factor IXa (human, UniProt P00740 47-191; P00740 227-461)
Test: cell-based or functional assay

B1 and B2 cannot be ordered by “EC50 [µM], FXa generation assay” value: > 1 µM for the first, > 10 µM for the second.

Going from B3 to B4, the “EC50 [µM], FXa generation assay” value falls from > 10 µM to < 0.5 µM.

B5 and B6 cannot be ordered by “EC50 [µM], FXa generation assay” value: < 0.5 µM for the first, < 0.5 µM for the second.

B7 and RRAPGKLQCLASYCWLFWTG cannot be ordered by “EC50 [µM], FXa generation assay” value: > 5 µM for the first, > 1 µM for the second.

RRAPGKLQCLASYCWLFWT and RRAPGKLQCLASYCWLFW cannot be ordered by “EC50 [µM], FXa generation assay” value: > 1 µM for the first, > 1 µM for the second.

First: RRAPGKLQCLASYCWLF
Second: RAPGKLQCLASYCWLFWTGIA
The “EC50 [µM], FXa generation assay” value of the first is higher: > 5 µM for the first, < 0.5 µM for the second.

APGKLQCLASYCWLFWTGIA and PGKLQCLASYCWLFWTGIA cannot be ordered by “EC50 [µM], FXa generation assay” value: < 0.5 µM for the first, < 0.5 µM for the second.

GKLQCLASYCWLFWTGIA and RRAPGKLQCLASYCWLFWTGLA cannot be ordered by “EC50 [µM], FXa generation assay” value: < 0.5 µM for the first, < 0.5 µM for the second.

R[dR]APGKLTCLASYCWLFWTGIA-NH2 (cysteine pairing not given here) [compound 6] and RRAPK([PEG2(3)-Biotin])KLTCLASYCWLFWTGIA-NH2 (cysteine pairing not given here) [compound 20] cannot be ordered by “EC50 [µM], FXa generation assay with hFIXa” value: < 0.5 µM for the first, < 0.5 µM for the second.
